From IntAct's records for PubMed 22518841

B1: Complement factor H-related protein 4 (Homo sapiens), Q92496-3 (parent)
chain: MLLLINVILTLWVSCANGQEVKPCDFPEIQHGGLYYKSLRRLYFPAAAGQSYSYYCDQNFVTPSGSYWDYIHCTQDGWSPTVPCLRTCSKSDIEIENGFISESSSIYILNKEIQYKCKPGYATADGNSSGSITCLQNGWSAQPICIKFCDMPVFENSRAKSNGMRFKLHDTLDYECYDGYEISYGNTTGSIVCGEDGWSHFPTCYNSSEKCGPPPPISNGDTTSFLLKVYVPQSRVEYQCQSYYELQGSNYVTCSNGEWSEPPRCIHPCIITEENMNKNNIQLKGKSDIKYYAKTGDTIEFMCKLGYNANTSVLSFQAVCREGIVEYPRCE

Experiments:
[1] = variants of: B1; conditions: with co3_human C3, P01024
[2] = variants of: B1; conditions: with cfab_human CFB
[3] = variants of: B1; conditions: with prop_human CFP

co3_human C3, P01024, sequence (P01024 whole entry): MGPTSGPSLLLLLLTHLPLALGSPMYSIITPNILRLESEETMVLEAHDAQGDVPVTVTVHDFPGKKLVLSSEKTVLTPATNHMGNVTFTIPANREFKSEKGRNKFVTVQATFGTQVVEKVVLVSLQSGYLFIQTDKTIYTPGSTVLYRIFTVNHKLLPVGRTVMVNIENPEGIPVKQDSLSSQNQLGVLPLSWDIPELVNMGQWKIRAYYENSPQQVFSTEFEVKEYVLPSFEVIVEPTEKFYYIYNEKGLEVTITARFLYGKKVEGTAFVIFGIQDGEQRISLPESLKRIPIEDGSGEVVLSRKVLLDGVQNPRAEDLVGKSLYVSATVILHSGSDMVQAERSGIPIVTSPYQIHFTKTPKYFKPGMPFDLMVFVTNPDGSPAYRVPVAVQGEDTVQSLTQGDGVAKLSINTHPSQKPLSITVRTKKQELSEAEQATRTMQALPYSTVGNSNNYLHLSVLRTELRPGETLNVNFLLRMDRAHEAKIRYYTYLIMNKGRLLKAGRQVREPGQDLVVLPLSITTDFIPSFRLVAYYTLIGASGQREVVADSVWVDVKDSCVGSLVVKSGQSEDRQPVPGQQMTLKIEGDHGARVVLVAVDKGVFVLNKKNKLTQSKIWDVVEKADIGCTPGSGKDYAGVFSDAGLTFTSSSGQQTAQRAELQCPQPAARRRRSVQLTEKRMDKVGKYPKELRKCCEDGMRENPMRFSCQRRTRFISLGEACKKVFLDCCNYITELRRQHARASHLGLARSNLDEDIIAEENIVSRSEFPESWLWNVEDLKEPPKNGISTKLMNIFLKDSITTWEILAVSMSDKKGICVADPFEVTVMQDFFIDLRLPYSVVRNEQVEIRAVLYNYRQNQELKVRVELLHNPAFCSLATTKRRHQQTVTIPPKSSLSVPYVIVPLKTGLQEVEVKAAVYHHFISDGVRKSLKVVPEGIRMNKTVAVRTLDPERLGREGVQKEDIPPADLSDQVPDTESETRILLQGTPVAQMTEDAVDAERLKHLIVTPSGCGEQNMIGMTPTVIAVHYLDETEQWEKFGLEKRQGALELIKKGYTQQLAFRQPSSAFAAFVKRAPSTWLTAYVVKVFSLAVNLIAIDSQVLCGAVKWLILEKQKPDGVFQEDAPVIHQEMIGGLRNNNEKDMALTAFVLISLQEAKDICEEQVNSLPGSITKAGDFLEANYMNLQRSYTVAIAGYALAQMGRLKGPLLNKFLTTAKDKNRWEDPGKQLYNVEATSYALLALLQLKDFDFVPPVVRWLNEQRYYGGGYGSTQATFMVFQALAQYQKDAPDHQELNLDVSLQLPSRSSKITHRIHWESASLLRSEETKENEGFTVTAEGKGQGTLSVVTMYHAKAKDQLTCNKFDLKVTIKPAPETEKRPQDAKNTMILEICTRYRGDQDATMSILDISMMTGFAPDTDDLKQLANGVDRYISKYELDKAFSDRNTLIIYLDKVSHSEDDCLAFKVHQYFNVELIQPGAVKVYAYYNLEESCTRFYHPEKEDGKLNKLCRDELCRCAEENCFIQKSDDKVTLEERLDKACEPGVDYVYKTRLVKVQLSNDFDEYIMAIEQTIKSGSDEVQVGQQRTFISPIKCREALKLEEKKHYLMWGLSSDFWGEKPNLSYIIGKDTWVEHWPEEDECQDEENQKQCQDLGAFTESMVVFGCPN

effect of a mutation on the interaction [1] | effect of a mutation on the interaction [2] | effect of a mutation on the interaction [3] | Variant
disrupting interaction strength | disrupting interaction strength | disrupting interaction strength | D221G;K290A
decreasing interaction strength | decreasing interaction strength | decreasing interaction strength | D221G
